Reference: patent US20170368136A1

What was measured:
CaMKIV = assay: cell-based or functional assay
CaMKII = assay: cell-based or functional assay
Chain of CaMKII (chain, from a related filing, as listed by the source): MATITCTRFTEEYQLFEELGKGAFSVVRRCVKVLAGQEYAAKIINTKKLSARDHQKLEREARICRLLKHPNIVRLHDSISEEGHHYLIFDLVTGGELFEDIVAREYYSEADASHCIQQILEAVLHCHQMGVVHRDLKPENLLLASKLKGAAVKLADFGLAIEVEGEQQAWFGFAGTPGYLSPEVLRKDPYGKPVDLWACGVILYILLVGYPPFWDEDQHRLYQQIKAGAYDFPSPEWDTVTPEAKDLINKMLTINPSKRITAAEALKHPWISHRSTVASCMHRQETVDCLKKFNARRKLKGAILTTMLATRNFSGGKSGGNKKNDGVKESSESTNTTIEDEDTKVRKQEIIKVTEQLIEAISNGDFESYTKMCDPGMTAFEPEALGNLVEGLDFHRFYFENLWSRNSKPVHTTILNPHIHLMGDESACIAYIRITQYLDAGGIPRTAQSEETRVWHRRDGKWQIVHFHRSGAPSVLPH

| Binder | reduction of kinase activity in a kinase panel, 5 µM tatCN21 (CaMKIV) | IC50, phosphorylation of syntide 2 by CaMKII (CaMKII) |
| --- | --- | --- |
| YGRKKRRQRRRKRPPKLGQIGRSKRVVIEDDR (modifications not checked) [tatCN21] | 35% |  |
| KRPPKLGQIGRSKRVVIEDDR [CN21a] |  | 100 nM |
